Laboratory results: publication PMC5038328, “IMP-27, a Unique Metallo-β-Lactamase Identified in Geographically Distinct Isolates of Proteus mirabilis” (Antimicrobial Agents and Chemotherapy, 2016)

Tests used:
IMP-27 [1] = target: T1, IMP-27 (Proteus mirabilis, UniProt F8UQX1); experiment: inhibition of nitrocefin hydrolysis, spectrophotometric initial rates; type: biochemical
T1 construct: gene PCR amplified from 2009 isolate DNA, pET-9a, E. coli BL21(DE3)/pLysS; KF501391 is the class 2 integron record
T1 sequence (F8UQX1 entry or part of it): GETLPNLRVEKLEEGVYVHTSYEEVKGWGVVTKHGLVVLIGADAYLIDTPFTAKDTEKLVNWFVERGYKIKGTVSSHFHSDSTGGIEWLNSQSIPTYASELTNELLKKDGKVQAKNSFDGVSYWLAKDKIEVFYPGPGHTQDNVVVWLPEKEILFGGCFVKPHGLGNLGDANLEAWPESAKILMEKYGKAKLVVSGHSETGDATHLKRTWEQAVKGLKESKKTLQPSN

IMP-27 [2] = target: T1, IMP-27; experiment: spectrophotometric initial rates; type: biochemical
From the text: spectrophotometric initial rates on IMP-27

[3] = tested on: CC(C)(O/N=C(\C(=O)N[C@@H]1C(=O)N2C(C(=O)[O-])=C(C[n+]3ccccc3)CS[C@H]12)c1csc(N)n1)C(=O)O; experiment: spectrophotometric initial hydrolysis rates; type: biochemical, Proteus mirabilis
From the text: (§1) spectrophotometric initial hydrolysis rates on IMP-27

[4] = tested on: CO/N=C(\C(=O)N[C@@H]1C(=O)N2C(C(=O)O)=C(COC(C)=O)CS[C@H]12)c1csc(N)n1; experiment: spectrophotometric initial hydrolysis rates; type: biochemical, Proteus mirabilis
From the text: as §1

[5] = tested on: O=C(Cc1cccs1)N[C@@H]1C(=O)N2C(C(=O)O)=C(/C=C/c3ccc([N+](=O)[O-])cc3[N+](=O)[O-])CS[C@H]12; experiment: spectrophotometric initial hydrolysis rates; type: biochemical, Proteus mirabilis
From the text: as §1

[6] = tested on: CO/N=C(\C(=O)N[C@@H]1C(=O)N2C(C(=O)[O-])=C(C[N+]3(C)CCCC3)CS[C@H]12)c1csc(N)n1; experiment: spectrophotometric initial hydrolysis rates; type: biochemical, Proteus mirabilis
From the text: as §1

[7] = tested on: C[C@@H](O)[C@H]1C(=O)N2C(C(=O)O)=C(S[C@@H]3CN[C@H](C(=O)N(C)C)C3)[C@H](C)[C@H]12; experiment: competition with nitrocefin hydrolysis, spectrophotometric; type: biochemical, Proteus mirabilis; settings: Km measured as Ki with nitrocefin as reporter substrate
From the text: (§2) competition with nitrocefin hydrolysis, spectrophotometric on IMP-27

[8] = tested on: C[C@@H](O)[C@H]1C(=O)N2C(C(=O)O)=C(SCCN=CN)C[C@H]12; experiment: as above; type: biochemical, Proteus mirabilis; settings: Km measured as Ki with nitrocefin as reporter substrate
From the text: as §2

O=C(O)CN(CCN(CC(=O)O)CC(=O)O)CC(=O)O [EDTA] showed a Ki (IMP-27 [1]; read-out: Ki) of 11 ± 0.9 mM.

O=C(O)c1cccc(C(=O)O)n1 [dipicolinic acid] showed a Ki (IMP-27 [1]; read-out: Ki) of 4.6 ± 0.13 mM.

Compound C[C@H]1[C@H](NC(=O)/C(=N\OC(C)(C)C(=O)O)c2csc(N)n2)C(=O)N1S(=O)(=O)O [aztreonam] has a Ki (IMP-27 [2]) of over 23 mM.

IMP-27 (Proteus mirabilis) was tested, and the Km [3] was 54 ± 4.3 µM, the kcat [3] was 0.7 ± 0.03 s⁻¹ and the kcat/Km [3] was 13000 M⁻¹ s⁻¹. For the same compound, the Km [4] was 24 ± 1.9 µM, the kcat [4] was 20 ± 0.66 s⁻¹ and the kcat/Km [4] was 860000 M⁻¹ s⁻¹. For the same compound, the Km [5] was 36 ± 3.1 µM, the kcat [5] was 370 ± 15 s⁻¹ and the kcat/Km [5] was 1e+07 M⁻¹ s⁻¹. The Km [6] was 53 ± 3.6 µM, the kcat [6] was 8.1 ± 0.37 s⁻¹ and the kcat/Km [6] was 150000 M⁻¹ s⁻¹. For the same compound, the Km [7] was 2.3 ± 0.8 µM, the kcat [7] was 3.4 ± 0.53 s⁻¹ and the kcat/Km [7] was 1.5e+06 M⁻¹ s⁻¹. The Km [8] was 310 ± 19 µM, the kcat [8] was 34 ± 0.38 s⁻¹ and the kcat/Km [8] was 110000 M⁻¹ s⁻¹.

With CCN1CCN(C(=O)N[C@@H](C(=O)N[C@@H]2C(=O)N3[C@@H]2SC(C)(C)[C@@H]3C(=O)O)c2ccccc2)C(=O)C1=O [piperacillin] the Ki (IMP-27 [1]; read-out: IMP-27 / Km or Ki) was 3 mM.
